{
  "source": "the RNAGym collection of RNA variant scans (doi:10.1073/pnas.2313332121)",
  "parents": {"B1": {"name": "TPR t1 (parent)", "chain": "GACCAAUCUGCCCUCAGAGCUCGAGAACAUCUUCGGAUGCAGAGGAGGCAGGCUUCGGUGGCGCGAUAGCGCCAACGUCCUCAACCUCCAAUGCAUCCCACCACAUGAUGAUGCCUGAAGAGCCUUGGUUUUUUG"}},
  "data": [
    {"variants_of": "B1", "test": "polymerase ribozyme fitness, log enrichment relative to wild type (log ratio); higher = more active; in vitro selection for triplet polymerase activity", "outline": "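In triplicate, a single round of in vitro selection was run on each mutant library, PCR-built and transcribed, covering one subunit of a heterodimeric triplet polymerase ribozyme. Frozen incubation at −7 °C followed annealing with a biotinylated primer, partner subunit and triplets, and extended constructs were then gel-excised, streptavidin-captured and taken through RT-PCR. Fitness is the logarithm of genotype enrichment over wild-type enrichment, from inverse-variance-weighted replicate averages of Illumina-sequenced inputs and outputs. […] only genotypes with ≥10 input reads and ≥1 read per output were kept.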", "values": [
      {"variant": "GACCAAUCUGCCCUCAGAGCUCGAGAACAUCUUCGGAUGCAGAGGAGGCAGGCUUCGGUGGCGCGAUAGCGCCAACGUCCUCAACCUCCAAUGCAUCCCACCACAUGAUGCUGCCUGAAGAACCUUGGUUUUUUG", "note": "[A111C G122A]", "polymerase ribozyme fitness (log ratio)": -0.308},
      {"variant": "GACCAAUCUGCCCUCAGAGCUCGAGAACAUCUUCGGAUGCAGAGGAGGCAGGCUUCGGUGGCGCGAUAGCGCCAACGUCCUCAACCUCCAAUGCAUCCCACCACAUGAUAUUGCCUGAAGAGCCUUGGUUUUUUG", "note": "[G110A A111U]", "polymerase ribozyme fitness (log ratio)": -1.9},
      {"variant": "GACCAAUCUGCCCUCAGAGCUCGAGAACAUCUUCGGAUGCAGAGGAGGCAGGCUUCGGUGGCGCGAUAGCGCCAACGUCCUCAACCUCCAAUGCAUCCCACCACAUGAUUAUGCCUGAAGAGCCUUGGAUUUUUG", "note": "[G110U U129A]", "polymerase ribozyme fitness (log ratio)": -2.53},
      {"variant": "GACCAAUCUGCCCUCAGAGCUCGAGAACAUCUUCGGAUGCAGAGGAGGCAGGCUUCGGUGGCGCGAUAGCGCCAACGUCCUCAACCUCCAAUGCAUCCCACCACAUGAUGGUGCCUGAAGAGCAUUGGUUUUUUG", "note": "[A111G C124A]", "polymerase ribozyme fitness (log ratio)": 1.23},
      {"variant": "GACCAAUCUGCCCUCAGAGCUCGAGAACAUCUUCGGAUGCAGAGGAGGCAGGCUUCGGUGGCGCGAUAGCGCCAACGUCCUCAACCUCCAAUGCAUCCCACCACAUGAUGCUGCCUGAAGAGCCUUCGUUUUUUG", "note": "[A111C G127C]", "polymerase ribozyme fitness (log ratio)": -0.199},
      {"variant": "GACCAAUCUGCCCUCAGAGCUCGAGAACAUCUUCGGAUGCAGAGGAGGCAGGCUUCGGUGGCGCGAUAGCGCCAACGUCCUCAACCUCCAAUGCAUCCCACCACAUGAUCAUGCCUGAAGCGCCUUGGUAUUUUG", "note": "[G110C A121C U130A]", "polymerase ribozyme fitness (log ratio)": -3.51},
      {"variant": "GACCAAUCUGCCCUCAGAGCUCGAGAACAUCUUCGGAUGCAGAGGAGGCAGGCUUCGGUGGCGCGAUAGCGCCAACGUCCUCAACCUCCAAUGCAUCCCACCACAUGAUCAUGCCUGAAGAGCCUUGGUUCUUUG", "note": "[G110C U131C]", "polymerase ribozyme fitness (log ratio)": -3.75},
      {"variant": "GACCAAUCUGCCCUCAGAGCUCGAGAACAUCUUCGGAUGCAGAGGAGGCAGGCUUCGGUGGCGCGAUAGCGCCAACGUCCUCAACCUCCAAUGCAUCCCACCACAUGAUGCUGCCUGAAGAGGCUUGGUUUUUUG", "note": "[A111C C123G]", "polymerase ribozyme fitness (log ratio)": 0.549},
      {"variant": "GACCAAUCUGCCCUCAGAGCUCGAGAACAUCUUCGGAUGCAGAGGAGGCAGGCUUCGGUGGCGCGAUAGCGCCAACGUCCUCAACCUCCAAUGCAUCCCACCACAUGAUCAUGCCUGAAGAGUCUUGGUUUUUUG", "note": "[G110C C123U]", "polymerase ribozyme fitness (log ratio)": -4.69},
      {"variant": "GACCAAUCUGCCCUCAGAGCUCGAGAACAUCUUCGGAUGCAGAGGAGGCAGGCUUCGGUGGCGCGAUAGCGCCAACGUCCUCAACCUCCAAUGCAUCCCACCACAUGAUAAUGCCUGAAGAGCCUUGGUAUUUUG", "note": "[G110A U130A]", "polymerase ribozyme fitness (log ratio)": -0.862},
      {"variant": "GACCAAUCUGCCCUCAGAGCUCGAGAACAUCUUCGGAUGCAGAGGAGGCAGGCUUCGGUGGCGCGAUAGCGCCAACGUCCUCAACCUCCAAUGCAUCCCACCACAUGAUAAUGCCUGAAGAGCCUUGGUCUUUUG", "note": "[G110A U130C]", "polymerase ribozyme fitness (log ratio)": -0.539},
      {"variant": "GACCAAUCUGCCCUCAGAGCUCGAGAACAUCUUCGGAUGCAGAGGAGGCAGGCUUCGGUGGCGCGAUAGCGCCAACGUCCUCAACCUCCAAUGCAUCCCACCACAUGAUGCUGCCUGAAGAGCCUUGGUUCUUUG", "note": "[A111C U131C]", "polymerase ribozyme fitness (log ratio)": 0.44},
      {"variant": "GACCAAUCUGCCCUCAGAGCUCGAGAACAUCUUCGGAUGCAGAGGAGGCAGGCUUCGGUGGCGCGAUAGCGCCAACGUCCUCAACCUCCAAUGCAUCCCACCACAUGAUGCUGCCUGAAGAGCUUUGCAUUUUUG", "note": "[A111C C124U G128C U129A]", "polymerase ribozyme fitness (log ratio)": -3.3},
      {"variant": "GACCAAUCUGCCCUCAGAGCUCGAGAACAUCUUCGGAUGCAGAGGAGGCAGGCUUCGGUGGCGCGAUAGCGCCAACGUCCUCAACCUCCAAUGCAUCCCACCACAUGAUGGUUCCUGAAGAGCCUUGGGUAUUUG", "note": "[A111G G113U U129G U131A]", "polymerase ribozyme fitness (log ratio)": -6.64},
      {"variant": "GACCAAUCUGCCCUCAGAGCUCGAGAACAUCUUCGGAUGCAGAGGAGGCAGGCUUCGGUGGCGCGAUAGCGCCAACGUCCUCAACCUCCAAUGCAUCCCACCACAUGAUAAUGCCUGAAAAGCCUUGGUUUUUUG", "note": "[G110A G120A]", "polymerase ribozyme fitness (log ratio)": -1.23},
      {"variant": "GACCAAUCUGCCCUCAGAGCUCGAGAACAUCUUCGGAUGCAGAGGAGGCAGGCUUCGGUGGCGCGAUAGCGCCAACGUCCUCAACCUCCAAUGCAUCCCACCACAUGAUUAUGCCUGAAGAGCCUUGGUCUUUUG", "note": "[G110U U130C]", "polymerase ribozyme fitness (log ratio)": -1.04},
      {"variant": "GACCAAUCUGCCCUCAGAGCUCGAGAACAUCUUCGGAUGCAGAGGAGGCAGGCUUCGGUGGCGCGAUAGCGCCAACGUCCUCAACCUCCAAUGCAUCCCACCACAUGAUUAUGCCUGAAGAGCCUUGGUAUUUUG", "note": "[G110U U130A]", "polymerase ribozyme fitness (log ratio)": -1.27},
      {"variant": "GACCAAUCUGCCCUCAGAGCUCGAGAACAUCUUCGGAUGCAGAGGAGGCAGGCUUCGGUGGCGCGAUAGCGCCAACGUCCUCAACCUCCAAUGCAUCCCACCACAUGAGGAUGCCUGAAGAGCCUUGGAUUUUUG", "note": "[U109G U129A]", "polymerase ribozyme fitness (log ratio)": -5.24},
      {"variant": "GACCAAUCUGCCCUCAGAGCUCGAGAACAUCUUCGGAUGCAGAGGAGGCAGGCUUCGGUGGCGCGAUAGCGCCAACGUCCUCAACCUCCAAUGCAUCCCACCACAUGAUGCGUCCAGAAGAGCAUUGGUUUUUUG", "note": "[A111C U112G G113U U116A C124A]", "polymerase ribozyme fitness (log ratio)": -3.18},
      {"variant": "GACCAAUCUGCCCUCAGAGCUCGAGAACAUCUUCGGAUGCAGAGGAGGCAGGCUUCGGUGGCGCGAUAGCGCCAACGUCCUCAACCUCCAAUGCAUCCCACCACAUGAUAAUGCCUGAAGAGCCUUGGUUGUUUG", "note": "[G110A U131G]", "polymerase ribozyme fitness (log ratio)": -1.96},
      {"variant": "GACCAAUCUGCCCUCAGAGCUCGAGAACAUCUUCGGAUGCAGAGGAGGCAGGCUUCGGUGGCGCGAUAGCGCCAACGUCCUCAACCUCCAAUGCAUCCCACCACAUGAUGGUGCCUGAAGAGCAUAGGUUUUUUG", "note": "[A111G C124A U126A]", "polymerase ribozyme fitness (log ratio)": 0.226}
    ]}
  ]
}
